According to publication PMC10777020, “The N1 domain of the peroxisomal AAA-ATPase Pex6 is required for Pex15 binding and proper assembly with Pex1” (The Journal of Biological Chemistry, 2023):

What was measured:
[1] = target: T1, Pex1/Pex6 (Pex1-FLAG/His-Pex6) (Saccharomyces cerevisiae, UniProt P24004+P33760); test: cryo-EM structure, ~[…] Å D1, ~[…]-9 Å D2; assay type: binding; settings: 1 mM ATP, pH 7.6, 10 mM MgCl2, with mEOS3.2-Pex15 1-309 (no substrate density in pore); ATP modelled in all D1 sites and four D2 sites
T1 construct: heterohexamer of alternating Pex1 and Pex6
T1 sequence (P24004 1-1043): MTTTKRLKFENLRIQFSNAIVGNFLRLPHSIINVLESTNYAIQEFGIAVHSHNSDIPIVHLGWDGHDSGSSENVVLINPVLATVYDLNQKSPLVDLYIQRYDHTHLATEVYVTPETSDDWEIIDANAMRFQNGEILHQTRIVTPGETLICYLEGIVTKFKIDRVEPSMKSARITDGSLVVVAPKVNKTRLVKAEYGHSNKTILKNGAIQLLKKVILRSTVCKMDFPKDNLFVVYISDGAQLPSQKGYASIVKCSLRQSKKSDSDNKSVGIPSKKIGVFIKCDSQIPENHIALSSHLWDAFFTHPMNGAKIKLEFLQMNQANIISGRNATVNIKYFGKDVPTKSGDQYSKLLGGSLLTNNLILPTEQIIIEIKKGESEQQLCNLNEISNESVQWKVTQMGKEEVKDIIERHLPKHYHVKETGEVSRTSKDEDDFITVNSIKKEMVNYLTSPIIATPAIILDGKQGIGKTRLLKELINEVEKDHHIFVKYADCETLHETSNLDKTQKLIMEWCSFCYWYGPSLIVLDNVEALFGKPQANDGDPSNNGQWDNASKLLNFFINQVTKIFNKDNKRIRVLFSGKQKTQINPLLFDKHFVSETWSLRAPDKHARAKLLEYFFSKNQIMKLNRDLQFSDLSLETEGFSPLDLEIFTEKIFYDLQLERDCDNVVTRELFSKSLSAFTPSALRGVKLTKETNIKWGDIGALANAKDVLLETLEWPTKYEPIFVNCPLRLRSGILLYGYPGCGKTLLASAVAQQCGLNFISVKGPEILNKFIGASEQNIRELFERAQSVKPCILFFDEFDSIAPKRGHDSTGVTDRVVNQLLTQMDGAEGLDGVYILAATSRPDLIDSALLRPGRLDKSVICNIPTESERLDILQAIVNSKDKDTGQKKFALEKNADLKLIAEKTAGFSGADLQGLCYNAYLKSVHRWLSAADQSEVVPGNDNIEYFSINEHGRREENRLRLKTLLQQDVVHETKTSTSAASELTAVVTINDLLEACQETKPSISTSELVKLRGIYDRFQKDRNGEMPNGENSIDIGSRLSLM
T1 sequence (P33760 1-1030): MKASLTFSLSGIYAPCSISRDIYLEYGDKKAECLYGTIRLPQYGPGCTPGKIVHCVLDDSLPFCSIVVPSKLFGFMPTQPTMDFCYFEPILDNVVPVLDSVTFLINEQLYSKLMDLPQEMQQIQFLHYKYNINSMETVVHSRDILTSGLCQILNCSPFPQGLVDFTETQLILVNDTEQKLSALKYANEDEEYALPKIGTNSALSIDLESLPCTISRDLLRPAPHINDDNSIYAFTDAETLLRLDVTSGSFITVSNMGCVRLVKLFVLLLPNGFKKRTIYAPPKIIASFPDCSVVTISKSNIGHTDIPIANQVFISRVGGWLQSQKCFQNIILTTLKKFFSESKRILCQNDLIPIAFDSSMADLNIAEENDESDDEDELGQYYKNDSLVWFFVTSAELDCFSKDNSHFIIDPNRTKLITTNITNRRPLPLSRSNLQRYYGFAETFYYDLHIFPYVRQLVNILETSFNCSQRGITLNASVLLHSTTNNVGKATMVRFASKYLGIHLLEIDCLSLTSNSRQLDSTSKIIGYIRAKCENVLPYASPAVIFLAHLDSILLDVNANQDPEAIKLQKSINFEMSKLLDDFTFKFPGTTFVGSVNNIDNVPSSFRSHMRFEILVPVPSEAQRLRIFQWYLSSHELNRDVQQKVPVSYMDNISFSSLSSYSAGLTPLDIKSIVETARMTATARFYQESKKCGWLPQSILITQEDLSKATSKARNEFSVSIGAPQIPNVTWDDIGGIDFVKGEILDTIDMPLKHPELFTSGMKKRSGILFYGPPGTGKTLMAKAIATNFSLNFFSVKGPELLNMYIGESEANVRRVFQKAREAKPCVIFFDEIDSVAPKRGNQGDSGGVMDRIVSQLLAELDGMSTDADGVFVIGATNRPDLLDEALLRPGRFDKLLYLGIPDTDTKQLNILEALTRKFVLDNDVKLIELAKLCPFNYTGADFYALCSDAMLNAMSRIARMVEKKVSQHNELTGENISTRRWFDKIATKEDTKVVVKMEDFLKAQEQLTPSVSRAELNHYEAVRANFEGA

Pex1/ΔN1-Pex6 = target: T2, Pex1/ΔN1-Pex6 (Saccharomyces cerevisiae, UniProt P24004+P33760); test: enzyme-coupled ATPase assay; assay type: biochemical; settings: 5 mM ATP, 30 °C
T2 construct: Pex1 with C-terminal FLAG; Pex6 lacking first 184 residues (N1 domain) with N-terminal His tag; heterohexamer
T2 sequence (P24004 1-1043): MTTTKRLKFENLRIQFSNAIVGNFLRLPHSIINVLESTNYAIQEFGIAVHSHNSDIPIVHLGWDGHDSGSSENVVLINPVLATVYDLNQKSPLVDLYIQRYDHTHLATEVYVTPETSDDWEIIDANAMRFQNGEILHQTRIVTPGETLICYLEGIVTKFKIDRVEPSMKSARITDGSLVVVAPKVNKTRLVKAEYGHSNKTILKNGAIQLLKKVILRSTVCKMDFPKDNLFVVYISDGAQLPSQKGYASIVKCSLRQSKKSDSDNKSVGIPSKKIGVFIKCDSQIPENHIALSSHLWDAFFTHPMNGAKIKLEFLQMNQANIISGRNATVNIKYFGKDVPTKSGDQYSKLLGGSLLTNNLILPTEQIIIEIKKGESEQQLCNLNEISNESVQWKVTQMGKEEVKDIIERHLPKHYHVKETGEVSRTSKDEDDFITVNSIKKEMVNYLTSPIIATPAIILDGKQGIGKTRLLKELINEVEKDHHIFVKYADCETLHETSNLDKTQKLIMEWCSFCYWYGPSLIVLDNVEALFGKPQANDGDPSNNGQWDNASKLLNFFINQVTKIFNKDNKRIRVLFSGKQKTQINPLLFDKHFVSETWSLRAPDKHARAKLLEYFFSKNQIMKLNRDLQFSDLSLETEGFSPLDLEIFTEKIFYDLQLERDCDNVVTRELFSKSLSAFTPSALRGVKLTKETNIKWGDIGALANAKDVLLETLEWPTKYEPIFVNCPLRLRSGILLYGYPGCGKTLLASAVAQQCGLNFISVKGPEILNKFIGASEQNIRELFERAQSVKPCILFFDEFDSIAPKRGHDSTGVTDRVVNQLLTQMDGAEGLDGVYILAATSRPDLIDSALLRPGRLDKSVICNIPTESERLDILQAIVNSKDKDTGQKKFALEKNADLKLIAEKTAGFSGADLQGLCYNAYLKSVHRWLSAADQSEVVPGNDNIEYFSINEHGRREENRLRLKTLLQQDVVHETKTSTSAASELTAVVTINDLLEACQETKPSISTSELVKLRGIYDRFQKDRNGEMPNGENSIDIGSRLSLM
T2 sequence (P33760 185-1030): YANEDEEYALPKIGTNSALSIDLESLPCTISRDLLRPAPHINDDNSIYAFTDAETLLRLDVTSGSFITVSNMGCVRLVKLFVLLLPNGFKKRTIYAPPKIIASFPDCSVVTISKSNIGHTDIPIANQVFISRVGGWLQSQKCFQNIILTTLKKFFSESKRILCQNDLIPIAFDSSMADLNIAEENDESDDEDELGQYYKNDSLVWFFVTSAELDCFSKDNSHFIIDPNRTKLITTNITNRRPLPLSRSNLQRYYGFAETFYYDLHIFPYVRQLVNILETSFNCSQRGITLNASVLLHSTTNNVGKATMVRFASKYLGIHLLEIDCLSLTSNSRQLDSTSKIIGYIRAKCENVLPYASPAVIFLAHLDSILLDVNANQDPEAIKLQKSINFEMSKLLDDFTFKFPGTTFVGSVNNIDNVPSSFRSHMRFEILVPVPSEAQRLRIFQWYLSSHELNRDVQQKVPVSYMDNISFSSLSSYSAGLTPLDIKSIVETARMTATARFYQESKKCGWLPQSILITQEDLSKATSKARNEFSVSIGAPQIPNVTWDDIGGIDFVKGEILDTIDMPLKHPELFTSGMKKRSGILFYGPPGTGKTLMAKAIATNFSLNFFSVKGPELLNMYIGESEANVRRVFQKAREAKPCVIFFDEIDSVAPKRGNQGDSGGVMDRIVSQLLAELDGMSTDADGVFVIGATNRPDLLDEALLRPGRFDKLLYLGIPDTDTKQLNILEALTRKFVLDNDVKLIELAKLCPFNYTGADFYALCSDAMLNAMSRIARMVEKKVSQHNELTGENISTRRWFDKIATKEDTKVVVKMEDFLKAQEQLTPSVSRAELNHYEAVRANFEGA

[2] = test system: T3, Nc1ncnc2c1ncn2[C@@H]1O[C@H](COP(=O)(O)OP(=O)(O)OP(=O)(O)O)[C@@H](O)[C@H]1O; test: purified protein; assay type: biochemical, Saccharomyces cerevisiae; settings: 30 °C, ATP varied, hydrolysis in D2 ring
T3 construct: heterohexamer of alternating Pex1 and Pex6

His-Pex6 = target: T4, His-Pex6 (S. cerevisiae, UniProt P33760 1-1030); test: cross-linking; photocrosslinking by AzF in Pex1 as above, in the absence or presence of 10 uM Pex15 1-309, Pex15 1-266 or Pex15 43-309; His-Pex6 stood in the complex with the Pex1 variant; settings: both partners purified
T4 construct: Pex6, AAA-ATPase of S. cerevisiae; no limits stated for the construct; In all experiments it stood in a complex with Pex1-FLAG or a Pex1 variant; also called ScPex6; His-tagged Pex6; source: E. coli BL21*(DE3), co-expressed with Pex1-FLAG or its variants; in lysate, then purified (Ni-NTA, anti-FLAG, Superose6 Increase); not shown: His, N-terminal, kept
T4 sequence: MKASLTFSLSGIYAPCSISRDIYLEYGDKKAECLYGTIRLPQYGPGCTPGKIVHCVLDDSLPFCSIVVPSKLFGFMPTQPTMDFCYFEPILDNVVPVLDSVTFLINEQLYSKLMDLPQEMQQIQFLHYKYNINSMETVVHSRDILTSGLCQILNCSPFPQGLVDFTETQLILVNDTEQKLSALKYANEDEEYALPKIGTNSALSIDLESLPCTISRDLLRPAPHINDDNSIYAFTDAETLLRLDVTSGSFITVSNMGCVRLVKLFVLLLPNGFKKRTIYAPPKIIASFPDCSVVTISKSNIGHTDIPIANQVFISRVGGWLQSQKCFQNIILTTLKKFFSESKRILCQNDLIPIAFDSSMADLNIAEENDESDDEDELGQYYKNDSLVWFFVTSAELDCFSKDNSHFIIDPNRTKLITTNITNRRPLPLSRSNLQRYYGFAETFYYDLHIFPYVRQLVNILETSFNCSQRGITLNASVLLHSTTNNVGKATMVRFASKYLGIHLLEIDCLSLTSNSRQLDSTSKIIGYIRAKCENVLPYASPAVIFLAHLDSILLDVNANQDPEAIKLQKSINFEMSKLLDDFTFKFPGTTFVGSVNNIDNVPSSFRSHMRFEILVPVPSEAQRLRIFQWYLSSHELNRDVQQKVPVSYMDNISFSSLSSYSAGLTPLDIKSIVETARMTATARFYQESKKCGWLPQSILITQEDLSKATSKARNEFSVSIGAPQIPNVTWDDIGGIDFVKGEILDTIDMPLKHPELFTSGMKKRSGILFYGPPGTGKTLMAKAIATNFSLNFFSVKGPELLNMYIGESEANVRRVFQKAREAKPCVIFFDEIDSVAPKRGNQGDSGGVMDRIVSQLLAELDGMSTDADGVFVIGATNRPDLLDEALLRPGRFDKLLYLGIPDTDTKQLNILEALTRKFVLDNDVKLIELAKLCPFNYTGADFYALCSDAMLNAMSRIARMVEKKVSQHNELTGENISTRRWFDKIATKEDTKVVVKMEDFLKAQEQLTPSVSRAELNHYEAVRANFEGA

Row | Molecule | Km [2] [µM] | binding result (His-Pex6) | further results
1 | Nc1ncnc2c1ncn2[C@@H]1O[C@H](COP(=O)(O)OP(=O)(O)OP(=O)(O)O)[C@@H](O)[C@H]1O [ATP] | – | – | cryo-EM structure, ~4 Å D1, ~5-9 Å D2 [1]: we find density for nucleotide in all the D1 ATPase domains, which we modeled as ATP; enzyme-coupled ATPase assay (Pex1/ΔN1-Pex6): Pex1/ΔN1-Pex6 motor had ATPase activity comparable to WT Pex1/Pex6
2 | Pex1/Pex6 (Pex1-FLAG/His-Pex6) (Saccharomyces cerevisiae S288C) | 230 | – | –
3 | Pex1/Pex6 (Pex1-FLAG/His-Pex6) (Saccharomyces cerevisiae S288C; P24004:DEL941-967) | 1030 | – | –
4 | Pex15 1-309 (cytosolic domain of Pex15) (domain or fragment, S. cerevisiae, UniProt Q08215 1-309, looked up, also called Pex15's cytosolic domain) MAASEIMNNLPMHSLDSSLRDLLNDDLFIESDESTKSVNDQRSEVFQECVNLFIKRDIKDCLEKMSEVGFIDITVFKSNPMILDLFVSACDIMPSFTKLGLTLQSEILNIFTLDTPQCIETRKIILGDLSKLLVINKFFRCCIKVIQFNLTDHTEQEEKTLELESIMSDFIFVYITKMRTTIDVVGLQELIEIFIFQVKVKLHHKKPSPNMYWALCKTLPKLSPTLKGLYLSKDVSIEDAILNSIDNKIQKDKAKSKGKQRGVKQKIHHFHEPMLHNSSEEQVKVEDAFNQRTSTDSRLQSTGTAPRKK | – | binds | –
5 | Pex15 1-266 (domain or fragment, S. cerevisiae, UniProt Q08215 1-266, looked up) MAASEIMNNLPMHSLDSSLRDLLNDDLFIESDESTKSVNDQRSEVFQECVNLFIKRDIKDCLEKMSEVGFIDITVFKSNPMILDLFVSACDIMPSFTKLGLTLQSEILNIFTLDTPQCIETRKIILGDLSKLLVINKFFRCCIKVIQFNLTDHTEQEEKTLELESIMSDFIFVYITKMRTTIDVVGLQELIEIFIFQVKVKLHHKKPSPNMYWALCKTLPKLSPTLKGLYLSKDVSIEDAILNSIDNKIQKDKAKSKGKQRGVKQK | – | binds | –
